Measurements reported in PMC10073703.

Target: Haemagglutinin (HA) of influenza A/Delaware/55/2019 (H1N1), from Flucelvax monovalent drug substance (Monobulk) (influenza A virus A/Delaware/55/2019 (H1N1))
Assay: SEC

Haemagglutinin (HA) of influenza A/Delaware/55/2019 (H1N1), from Flucelvax monovalent drug substance (Monobulk) (natural protein)
stoichiometry N: 3
